Test results from patent US20230140397A1 (JIANGSU HENGRUI PHARMACEUTICALS, published 2023).
One block for each binder: values may come before it.

Experiments:
[1] = target: T1, prostate specific membrane antigen (PSMA) on prostate cancer cells (human, UniProt Q04609 1-750); experiment: flow cytometry on MDA PCa 2b cells (PSMA-expressing), FITC anti-human IgG detection
T1 construct: whole, on cells; Printed expression order: MDA PCa 2b > LNCaP > 22Rv1; also called glutamate carboxypeptidase II (GCPII); FOLH1
T1 sequence (Q04609 whole entry): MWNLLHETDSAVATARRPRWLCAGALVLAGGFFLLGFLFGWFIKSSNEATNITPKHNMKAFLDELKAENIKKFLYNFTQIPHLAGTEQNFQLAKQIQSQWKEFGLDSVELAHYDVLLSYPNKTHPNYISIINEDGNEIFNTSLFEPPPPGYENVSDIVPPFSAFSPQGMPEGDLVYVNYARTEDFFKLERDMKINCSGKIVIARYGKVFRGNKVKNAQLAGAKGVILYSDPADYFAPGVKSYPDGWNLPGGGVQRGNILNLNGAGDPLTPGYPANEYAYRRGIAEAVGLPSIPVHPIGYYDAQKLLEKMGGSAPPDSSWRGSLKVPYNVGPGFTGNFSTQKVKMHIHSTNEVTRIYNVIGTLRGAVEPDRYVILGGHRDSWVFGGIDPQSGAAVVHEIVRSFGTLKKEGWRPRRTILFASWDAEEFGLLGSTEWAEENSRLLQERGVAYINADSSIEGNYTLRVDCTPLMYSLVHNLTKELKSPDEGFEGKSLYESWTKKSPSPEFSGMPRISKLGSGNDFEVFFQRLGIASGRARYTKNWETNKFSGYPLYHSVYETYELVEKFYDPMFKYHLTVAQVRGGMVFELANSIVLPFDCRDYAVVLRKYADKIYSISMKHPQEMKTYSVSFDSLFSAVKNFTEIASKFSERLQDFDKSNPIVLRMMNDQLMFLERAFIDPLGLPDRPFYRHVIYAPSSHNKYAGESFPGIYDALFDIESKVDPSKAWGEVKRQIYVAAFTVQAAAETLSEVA

[2] = target: T1, prostate specific membrane antigen …; experiment: cell-based or functional assay
[3] = target: T1, prostate specific membrane antigen …; experiment: flow cytometry on 22Rv1 cells, FITC anti-human IgG secondary
Experimental: (§1) In this experiment, fluorescence signals of antibodies on the cell surface were detected, and the binding of the antibodies was evaluated according to the intensity of the fluorescence signals.
(§2) The cells were incubated with an FITC-labeled goat anti-human IgG (H+L) secondary antibody (Jackson Immuno Research, 109-095-003) at 4° C. for 30 min, and then excess antibodies were washed off. The fluorescence signals on the cell surface were read using BD CantoII. The results are shown in Table 2, FIG. 1A, FIG. 1B, FIG. 1C, FIG. 1D, and FIG. 1E.

[4] = target: T1, prostate specific membrane antigen …; experiment: flow cytometry on MDA PCa 2b cells, FITC anti-human IgG secondary
Experimental: as §1, §2

[5] = target: T1, prostate specific membrane antigen …; experiment: flow cytometry on LNCaP cells, FITC anti-human IgG secondary
Experimental: as §1, §2

B1: Lmab-9-A (control antibody-drug conjugate of labeuzumab with compound 9-A, n=7.07) (antibody, human IgG1, kappa, V domains shown)
VH: EVQLVESGGGVVQPGRSLRLSCSASGFDFTTYWMSWVRQAPGKGLEWIGEIHPDSSTINYAPSLKDRFTISRDNAKNTLFLQMDSLRPEDTGVYFCASLYFGFPWFAYWGQGTPVTVSS
VL: DIQLTQSPSSLSASVGDRVTITCKASQDVGTSVAWYQQKPGKAPKLLIYWTSTRHTGVPSRFSGSGSGTDFTFTISSLQPEDIATYYCQQYSLYRSFGQGTKVEIKR
modifications: drug-linker compound 9-A coupled to cysteine after TCEP reduction; positions not given; mean n=7.07 per antibody (UV-Vis)
notes: also called control ADC Lmab-9-A; ADCLmab-9-A
binding result [1]: no binding

B4: ADC-10 (exemplary product of the conjugate of formula PM-VcMMAE, n=3.92) (antibody, V domains shown)
VH: QVQLVESGGGVVQPGRSLRLSCAASGFAFSRYGMHWVRQAPGKGLEWVAVIWYDGSNKYYADSVKGRFTISRDNSKNTQYLQMNSLRAEDTAVYYCARGGDFLYYYYYGMDVWGQGTTVTVSS
VL: DIQMTQSPSSLSASVGDRVTITCRASQGISNYLAWYQQKTGKVPKFLIYEASTLQSGVPSRFSGGGSGTDFTLTISSLQPEDVATYYCQNYNSAPFTFGPGTKVDIKR
modifications: VcMMAE coupled via a mercapto group on cysteine after TCEP reduction; positions not given; mean n=3.92 per antibody (CE-SDS); VcMMAE (CAS 646502-53-6) coupled via a mercapto group on cysteine after TCEP reduction; positions not given; mean n=3.92 per antibody (CE-SDS)
notes: also called positive ADC-10
EC50 [3]: 0.689 nM
EC50 [4]: 0.954 nM
EC50 [5]: 1.58 nM

Continued by falling EC50 [3], values first:

EC50 [3]: 0.676 nM
EC50 [4]: 1.08 nM
EC50 [5]: 1.42 nM
B2: Antibody PM (intact full-length anti-PSMA antibody PM, variable regions of AB-PG1-XG1-006) (antibody, V domains shown)
VH: B4 VH
VL: B4 VL
notes: Full-length IgG1/kappa (VH-CH1-Fc/VK-CL), expressed in HEK293E cells; also called AB-PG1-XG1-006 (variable regions)
Endocytic activity of different cells to the antibodies (IC50, nM); DT3C-mediated cell killing, 22RV1 cells [2]: 0.0856 nM

EC50 [3]: 0.571 nM
EC50 [4]: 0.718 nM
EC50 [5]: 0.938 nM
B3: ADC-2 (exemplary product of the conjugate of formula PM-9-A, n=6.63) (antibody, V domains shown)
VH: B4 VH
VL: B4 VL
modifications: drug-linker compound 9-A coupled via a mercapto group on cysteine after TCEP reduction; positions not given; mean n=6.63 per antibody (UV-Vis); drug-linker compound 9-A (exatecan analog with linking unit) coupled via a mercapto group on cysteine after TCEP reduction; positions not given; mean n=6.63 per antibody (UV-Vis)
notes: also called PSMA ADC
